Laboratory results as given in patent US20060121042A1 (AstraZeneca / MedImmune, published 2006).
Positions count from the first letter of the chain named.

T1: r murine EphA7 (mouse, UniProt Q61772)
T1 construct: recombinant Fc fusion (R&D Systems); also called rmuEphA7-Fc; mEphA7
T1 sequence (receptor-Fc fusion, looked up): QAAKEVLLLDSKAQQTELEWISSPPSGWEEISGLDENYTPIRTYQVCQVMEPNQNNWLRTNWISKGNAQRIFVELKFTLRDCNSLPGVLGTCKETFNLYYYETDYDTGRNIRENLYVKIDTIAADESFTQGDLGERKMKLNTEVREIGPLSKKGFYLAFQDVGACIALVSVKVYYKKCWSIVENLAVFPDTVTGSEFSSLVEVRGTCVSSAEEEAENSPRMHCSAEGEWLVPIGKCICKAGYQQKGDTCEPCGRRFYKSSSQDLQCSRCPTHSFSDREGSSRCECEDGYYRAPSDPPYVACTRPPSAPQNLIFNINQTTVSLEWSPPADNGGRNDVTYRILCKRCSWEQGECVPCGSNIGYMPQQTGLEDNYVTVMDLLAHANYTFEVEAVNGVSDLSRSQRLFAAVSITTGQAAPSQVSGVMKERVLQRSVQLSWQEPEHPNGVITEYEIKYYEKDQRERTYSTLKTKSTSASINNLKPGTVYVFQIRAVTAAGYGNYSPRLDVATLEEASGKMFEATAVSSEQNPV

T2: r murine EphA3 (mouse, UniProt P29319)
T2 construct: recombinant Fc fusion (R&D Systems); also called rmuEphA3-Fc; mEphA3
T2 sequence (receptor-Fc fusion, looked up): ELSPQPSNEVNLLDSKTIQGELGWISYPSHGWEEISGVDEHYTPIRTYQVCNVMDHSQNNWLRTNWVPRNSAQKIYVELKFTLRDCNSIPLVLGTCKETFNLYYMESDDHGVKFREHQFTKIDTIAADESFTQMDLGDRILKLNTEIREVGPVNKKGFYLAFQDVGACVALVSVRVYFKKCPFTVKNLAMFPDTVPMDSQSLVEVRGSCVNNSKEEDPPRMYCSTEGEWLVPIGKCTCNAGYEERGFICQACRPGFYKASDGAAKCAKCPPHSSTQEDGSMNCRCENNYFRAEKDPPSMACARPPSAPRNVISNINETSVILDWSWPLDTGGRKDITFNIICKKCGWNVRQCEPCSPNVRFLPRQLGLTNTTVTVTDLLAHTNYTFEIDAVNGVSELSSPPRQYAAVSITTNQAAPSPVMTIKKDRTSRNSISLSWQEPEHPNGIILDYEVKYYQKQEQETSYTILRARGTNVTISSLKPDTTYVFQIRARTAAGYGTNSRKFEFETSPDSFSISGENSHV

T3: mEphA3 (mouse, UniProt P29319)
T3 construct: part of an Fc fusion; also called rmuEphA3-Fc
T3 sequence (receptor-Fc fusion, looked up): T2 sequence (receptor-Fc fusion, looked up)

T4: mEphA7 (mouse, UniProt Q61772)
T4 construct: part of an Fc fusion; also called rmuEphA7-Fc
T4 sequence (receptor-Fc fusion, looked up): T1 sequence (receptor-Fc fusion, looked up)

B1: 1A4 IgG1 (affinity optimized combinatorial variant of mAb GEA44 in human IgG1 format) (antibody, V domains shown)
VH: QVQLLQSGAEVKKPGASVKVPCKASGYTFTSRAMSWVRQAPGQGLEWMGWINTNTGNPTYAQGSTGRFVFSLDTSVSTAYLQISSLKAEDTAVYYCARVRFTVYGDGMDVWGQGTLVTVSS
VL: EIVLTQSPATLSVSPGERATLSCRASQSVSSNPAWYQQKPGQAPRLLIYGASTRATGIPDRFSASGSGTDFTLTISRVEPEDFAVYYCQQYGPSWTFGQGTKVEIK
B2: 1D11 IgG1 (affinity optimized combinatorial variant of mAb GEA44 in human IgG1 format) (antibody, V domains shown)
VH: B1 VH with S64F, F101T, G107N
VL: B1 VL with P33L, A34P
B3: 12G3H11 (antibody, V domains shown)
VH: QMQLVQSGPEVKKPGTSVKVSCKASGFTFDDYSMNWVRQARGQRLEWIGFIRNKANDYTTEYADSVKGRVTITRDMSTSTAYMELSSLRSEDTAVYYCARYPRHHAMDSWGQGTSVTVSS
VL: DIQMTQSPSSLSASVGDRVTITCRASQSISNNLHWYQQKPGKAPKLLIKYAFQSISGVPSRFSGSGSGTDFTFTISSLQPEDFATYYCQQANSWPLTFGGGTKVEIK
B4: 4H5 (antibody, V domains shown)
VH: QVQLLESGGGLVQPGGSLRLSCAASGFTFSSYTMSWVRQAPGQALEWMGTISSGGTYTYYPDSVKGRFTISRDNAKNSLYLQMNSLRAEDTAVYYCAREAIFTYWGRGTLVTVSS
VL: DIQLTQSPSSLSASVGDRVTITCKASQDINNYLSWYQQKPGQAPRLLIYRANRLVDGVPDRFSGSGYGTDFTLTINNIESEDAAYYFCLKYDVFPYTFGQGTKVEIK
B5: EA5 (antibody, V domains shown)
VH: EVQLQQSGPELVKTGASVKISCKASGYSFTGYYMHWVKQSHGKSLEWIGYISCYNGVTSYNQKFKGKATFTVDTSSSTAYMQFNSLTSEDSAVYYCARSHAMDYWGQGTSVTVSS
VL: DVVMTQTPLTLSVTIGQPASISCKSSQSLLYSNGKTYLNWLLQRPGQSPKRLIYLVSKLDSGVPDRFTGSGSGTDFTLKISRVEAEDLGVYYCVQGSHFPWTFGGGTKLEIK
B6: 6B7 Fab (affinity optimized combinatorial variant of Fab20) (Fab, V domains shown)
VH: B1 VH with S64F
VL: B1 VL
B7: 1A4 Fab (affinity optimized combinatorial variant of Fab20) (Fab, V domains shown)
VH: B1 VH
VL: B1 VL
B8: 1B10 Fab (affinity optimized combinatorial variant of Fab20) (Fab, V domains shown)
VH: B1 VH with S64F
VL: B1 VL with R54W
B9: 1D11 Fab (affinity optimized combinatorial variant of Fab20) (Fab, V domains shown)
VH: B1 VH with S64F, F101T, G107N
VL: B1 VL with P33L, A34P
B10: 1G11 Fab (affinity optimized combinatorial variant of Fab20) (Fab, V domains shown)
VH: B1 VH with S64F
VL: B1 VL with P33L, A34P, A55P
B11: 3C6 Fab (affinity optimized combinatorial variant of Fab20) (Fab, V domains shown)
VH: B1 VH with S64F, F101L
VL: B1 VL with A34P, P93S
B12: 1G11 IgG1 (affinity optimized combinatorial variant of mAb GEA44 in human IgG1 format) (antibody, V domains shown)
VH: B1 VH with S64F
VL: B1 VL with P33L, A34P, A55P
B13: 8B4 IgG1 (affinity optimized combinatorial variant of mAb GEA44 in human IgG1 format) (antibody, V domains shown)
VH: B1 VH with S64F, F101L
VL: B1 VL with A51L

Each binder was assayed against T5, Human EphA4-His fusion protein (human, UniProt P54764 20-547) (assay: BIAcore, IgG immobilized on the sensor chip, EphA4-his as analyte).
T5 construct: also called rhuEphA4-His; not shown: Histidine tag
T5 sequence (P54764 20-547): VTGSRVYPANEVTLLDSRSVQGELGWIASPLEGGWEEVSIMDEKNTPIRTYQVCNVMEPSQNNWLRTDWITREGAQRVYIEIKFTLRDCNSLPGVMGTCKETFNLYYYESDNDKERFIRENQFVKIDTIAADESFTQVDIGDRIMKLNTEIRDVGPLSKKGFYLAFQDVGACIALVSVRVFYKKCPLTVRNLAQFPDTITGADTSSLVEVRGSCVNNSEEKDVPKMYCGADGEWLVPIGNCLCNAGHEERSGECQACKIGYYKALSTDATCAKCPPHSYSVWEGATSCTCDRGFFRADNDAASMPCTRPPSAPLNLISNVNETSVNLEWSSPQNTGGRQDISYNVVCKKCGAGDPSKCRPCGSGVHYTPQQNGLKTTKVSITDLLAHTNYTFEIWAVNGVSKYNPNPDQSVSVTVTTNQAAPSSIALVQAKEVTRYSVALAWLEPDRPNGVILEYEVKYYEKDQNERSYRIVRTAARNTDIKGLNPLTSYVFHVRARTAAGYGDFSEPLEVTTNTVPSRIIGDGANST
Procedure: (§1) FIG. 15A-15B. […] Binding affinities were measured using the BIAcore assay. […] Variant kinetic measurements for human EphA4 and were obtained using BIAcore with immobilized variant antibodies and human EphA4-Fc and EphA4-His as analytes.
B1 was tested, and the Kd was 0.8 nM, the koff was 0.000345 s⁻¹ and the kon was 431000 M⁻¹ s⁻¹.
B2 gave a Kd of 8.8 nM, a koff of 0.000984 s⁻¹ and a kon of 112000 M⁻¹ s⁻¹.

These binders were tested against T6, hEphA2 (human, UniProt P29317) (assay: ELISA).
T6 construct: also called human EphA2
T6 sequence (P29317 25-534 limits assumed): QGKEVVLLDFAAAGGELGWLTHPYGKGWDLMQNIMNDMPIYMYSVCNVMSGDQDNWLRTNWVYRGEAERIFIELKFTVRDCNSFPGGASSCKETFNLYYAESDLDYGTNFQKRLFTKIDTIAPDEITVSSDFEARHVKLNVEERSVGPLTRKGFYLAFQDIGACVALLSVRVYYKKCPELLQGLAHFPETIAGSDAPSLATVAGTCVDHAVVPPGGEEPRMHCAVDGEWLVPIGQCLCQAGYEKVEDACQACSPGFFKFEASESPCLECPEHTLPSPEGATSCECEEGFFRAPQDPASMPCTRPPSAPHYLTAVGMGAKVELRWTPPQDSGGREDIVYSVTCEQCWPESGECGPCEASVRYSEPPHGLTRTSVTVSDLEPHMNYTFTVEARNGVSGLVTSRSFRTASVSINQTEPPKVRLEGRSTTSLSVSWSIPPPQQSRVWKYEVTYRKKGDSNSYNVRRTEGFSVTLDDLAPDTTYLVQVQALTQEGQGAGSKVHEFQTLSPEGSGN
For B3, the “ELISA O.D. value” was 0.849.
In the case of B4, the “ELISA O.D. value” is reported as 0.724.
B5 was tested, and the “ELISA O.D. value” was 0.131.

The binders below were run against T1, r murine EphA7 (assay: activity ELISA, Fab on coated antigen).
Procedure: (§2) More precisely, Nunc Maxisorp plates were coated with the following rEphA proteins: rhuEphAl-Fc, rmuEphA2-Fc, rmuEphA3-Fc, rmuEphA4-Fc, rratEphA5-Fc, rmuEphA6-Fc, rmuEphA7-Fc, rEphA8; all at 0.5 μg/well (all R&D Systems) rhuEphA2-Fc; 0.5 μg/well, and rhuEphA4-His; 0.1 μg/well (both produced at MedImmune, Inc.). Plates were blocked with 3% BSA+0.1% Tween20 for 2 h. […] Incubation with a goat anti-human kappa horseradish peroxydase (HRP) conjugate then followed. HRP activity was detected with TMB substrate and the reaction quenched with 0.2 M H₂SO₄. Plates were read at 450 nm. Data was analyzed by normalizing Fab concentrations to the corresponding activity data (see FIGS. 10B-10H).
B6: binds.
B7: binds.
B8: binds.
B9: binds.
B10: binds.
B11: binds.

Each binder was assayed against T2, r murine EphA3 (assay: activity ELISA, Fab on coated antigen).
Procedure: as §2
B6: binds.
B7: binds.
B10: binds.

What follows are binders tested against T7, r murine EphA4 (mouse, UniProt Q03137) (assay: activity ELISA, Fab on coated antigen).
T7 construct: recombinant Fc fusion (R&D Systems); also called rmuEphA4-Fc; mEphA4
T7 sequence (Q03137 20-547 limits assumed): as the sequence (P54764 20-547) above, with P59A, N121S, V124G, R250Q, S251N, T270S, K378R, N406S counted along it
Procedure: as §2
B6: binds.
B7: binds.
B8: binds.
B9: binds.
B10: binds.
B11: binds.

These binders were tested against T1, r murine EphA7 (assay: activity ELISA, IgG on coated antigen).
Procedure: (§3) Secondary screening of IgG constructs of affinity optimized combinatorial variants with additional EphA receptors: With purified IgG constructs of the nine combinatorial variants, additional secondary screening assays were performed using the Activity ELISA (see above) and recombinant EphA receptor proteins. More precisely, Nunc Maxisorp plates were coated with the following rEphA proteins: rhuEphAl-Fc; 0.5 μg/well, rmuEphA2-Fc; 0.5 μg/well, rmuEphA3-Fc: 0.1 μg/well, rmuEphA4-Fc; 0.1 μg/well, rratEphA5-Fc; 0.5 μg/well, rmuEphA6-Fc; 0.5 μg/well, rmuEphA7-Fc; 0.1 μg/well, rEphA8; 0.2 μg/well (all R&D Systems), rhuEphA2-Fc; 0.5 μg/well, and rhuEphA4-His; 0.1 μg/well (both produced at MedImmune, Inc.). Plates were blocked with 3% BSA+0.1% Tween20 for 2 h. […] Incubation with a goat anti-human kappa horseradish peroxydase (HRP) conjugate then followed. HRP activity was detected with TMB substrate and the reaction quenched with 0.2 M H₂SO₄. Plates were read at 450 nm. Data was analyzed by normalizing Fab concentrations to the corresponding activity data (see FIGS. 12A-12J and 14).
B1: binds.
B2: binds.
B12: binds.

These binders were tested against T2, r murine EphA3 (assay: activity ELISA, IgG on coated antigen).
Procedure: as §3
B1: binds.
B12: binds.

These binders were tested against T7, r murine EphA4 (assay: activity ELISA, IgG on coated antigen).
Procedure: as §3
B1: binds.
B2: binds.
B12: binds.

Each binder was assayed against T8, Human EphA4-Fc fusion protein (human, UniProt P54764 20-547) (assay: BIAcore, IgG immobilized on the sensor chip, EphA4-Fc as analyte).
T8 construct: not shown: Fc portion of a human IgG1
T8 sequence (P54764 20-547): as the sequence (P54764 20-547) above
Procedure: as §1
In the case of B1, the Kd is reported as 0.037 nM, the koff is reported as 2.87e-05 s⁻¹ and the kon is reported as 769000 M⁻¹ s⁻¹.
B2 gave a Kd of 0.176 nM, a koff of 6.15e-05 s⁻¹ and a kon of 350000 M⁻¹ s⁻¹.
B12 gave a Kd of 0.059 nM, a koff of 1.01e-05 s⁻¹ and a kon of 172000 M⁻¹ s⁻¹.
In the case of B13, the Kd is reported as 0.197 nM, the koff is reported as 2.2e-05 s⁻¹ and the kon is reported as 112000 M⁻¹ s⁻¹.

What follows are binders tested against T3, mEphA3 (assay: ELISA, receptor coated on the plate, purified IgG, anti-human kappa-HRP).
Procedure: as §3
B1: binds.
B12: binds.

What follows are binders tested against T4, mEphA7 in the same assay as above.
Procedure: as §3
B1: binds.
B2: binds.
B12: binds.

The binders below were run against T9, mEphA4 (mouse, UniProt Q03137) in the same assay as above.
T9 construct: part of an Fc fusion; also called rmuEphA4-Fc
T9 sequence (Q03137 20-547 limits assumed): as the sequence (P54764 20-547) above, with P59A, N121S, V124G, R250Q, S251N, T270S, K378R, N406S counted along it
Procedure: as §3
B1: binds.
B2: binds.
B12: binds.
